This note sets out measurements from paper PMC5052711.

The nature of data set [1]: fluorometric membrane depolarization, 23°C vs 37°C. To be noted: glycan lost; control: wild type (less sensitive at 23°C than at 37°C).
Data set [2] can be described thus: whole-cell patch-clamp, maximum amplitude. To be noted: glycan lost; control: wild type.
Data set [3] is described as follows: fluorometric membrane depolarization, maximal RFU. To be noted: glycan lost; control: wild type.
Data set [4] in a line: ratio of WT-relative surface to WT-relative total expression. To be noted: glycan lost; control: wild type.
Data set [5] is described as follows: whole-cell patch-clamp, 37°C. To be noted: glycan lost; control: wild type. A general note: The patch-clamp technique gives a direct electrical read-out from membranes.
Data set [6] is described as follows: anti-FLAG WB of cell lysates, normalized to total protein. To be noted: glycan lost; control: wild type.
A short description of data set [7]: fluorometric membrane depolarization, FlexStation, 37°C. To be noted: glycan lost; control: wild type.

B1: hTRPA1: N747/753Q (protein)
parent chain: MKRSLRKMWRPGEKKEPQGVVYEDVPDDTEDFKESLKVVFEGSAYGLQNFNKQKKLKRCDDMDTFFLHYAAAEGQIELMEKITRDSSLEVLHEMDDYGNTPLHCAVEKNQIESVKFLLSRGANPNLRNFNMMAPLHIAVQGMNNEVMKVLLEHRTIDVNLEGENGNTAVIIACTTNNSEALQILLKKGAKPCKSNKWGCFPIHQAAFSGSKECMEIILRFGEEHGYSRQLHINFMNNGKATPLHLAVQNGDLEMIKMCLDNGAQIDPVEKGRCTAIHFAATQGATEIVKLMISSYSGSVDIVNTTDGCHETMLHRASLFDHHELADYLISVGADINKIDSEGRSPLILATASASWNIVNLLLSKGAQVDIKDNFGRNFLHLTVQQPYGLKNLRPEFMQMQQIKELVMDEDNDGCTPLHYACRQGGPGSVNNLLGFNVSIHSKSKDKKSPLHFAASYGRINTCQRLLQDISDTRLLNEGDLHGMTPLHLAAKNGHDKVVQLLLKKGALFLSDHNGWTALHHASMGGYTQTMKVILDTNLKCTDRLDEDGNTALHFAAREGHAKAVALLLSHNADIVLNKQQASFLHLALHNKRKEVVLTIIRSKRWDECLKIFSHNSPGNKCPITEMIEYLPECMKVLLDFCMLHSTEDKSCRDYYIEYNFKYLQCPLEFTKKTPTQDVIYEPLTALNAMVQNNRIELLNHPVCKEYLLMKWLAYGFRAHMMNLGSYCLGLIPMTILVVNIKPGMAFNSTGIINETSDHSEILDTTNSYLIKTCMILVFLSSIFGYCKEAGQIFQQKRNYFMDISNVLEWIIYTTGIIFVLPLFVEIPAHLQWQCGAIAVYFYWMNFLLYLQRFENCGIFIVMLEVILKTLLRSTVVFIFLLLAFGLSFYILLNLQDPFSSPLLSIIQTFSMMLGDINYRESFLEPYLRNELAHPVLSFAQLVSFTIFVPIVLMNLLIGLAVGDIAEVQKHASLKRIAMQVELHTSLEKKLPLWFLRKVDQKSTIVYPNKPRSGGMLFHIFCFLFCTGEIRQEIPNADKSLEMEILKQKYRLKDLTFLLEKQHELIKLIIQKMEIISETEDDDSHCSFQDRFKKEQMEQRNSRWNTVLRAVKAKTHHLEP
For the protein B1, in data set [1], the “other: temperature dependence of agonist sensitivity, EC50” value (“other: temperature dependence” below) is given as “changes, 14.8 vs 13.5”. For the same protein, the “other: channel current” value in data set [2] is given as “no change”. Moreover, in data set [3], the “other: maximal channel response, other: mean maximal RFU” value (shortened to “other: maximal channel response, other”) was “no change, 866 vs 1155”. Moreover, the “localisation_or_trafficking, other: surface/total ratio relative to WT” value in data set [4] is listed as “no change”. Besides, the “other: agonist sensitivity, EC50” value in data set [5] is “decreases, 142.3 vs 35.0”; in data set [7] it was “decreases, 20.9 vs 9.5”. Also, the “expression_or_secretion, fold_change” value in data set [6] is “decreases”.

B2: hTRPA1: N747Q (protein)
parent chain: MKRSLRKMWRPGEKKEPQGVVYEDVPDDTEDFKESLKVVFEGSAYGLQNFNKQKKLKRCDDMDTFFLHYAAAEGQIELMEKITRDSSLEVLHEMDDYGNTPLHCAVEKNQIESVKFLLSRGANPNLRNFNMMAPLHIAVQGMNNEVMKVLLEHRTIDVNLEGENGNTAVIIACTTNNSEALQILLKKGAKPCKSNKWGCFPIHQAAFSGSKECMEIILRFGEEHGYSRQLHINFMNNGKATPLHLAVQNGDLEMIKMCLDNGAQIDPVEKGRCTAIHFAATQGATEIVKLMISSYSGSVDIVNTTDGCHETMLHRASLFDHHELADYLISVGADINKIDSEGRSPLILATASASWNIVNLLLSKGAQVDIKDNFGRNFLHLTVQQPYGLKNLRPEFMQMQQIKELVMDEDNDGCTPLHYACRQGGPGSVNNLLGFNVSIHSKSKDKKSPLHFAASYGRINTCQRLLQDISDTRLLNEGDLHGMTPLHLAAKNGHDKVVQLLLKKGALFLSDHNGWTALHHASMGGYTQTMKVILDTNLKCTDRLDEDGNTALHFAAREGHAKAVALLLSHNADIVLNKQQASFLHLALHNKRKEVVLTIIRSKRWDECLKIFSHNSPGNKCPITEMIEYLPECMKVLLDFCMLHSTEDKSCRDYYIEYNFKYLQCPLEFTKKTPTQDVIYEPLTALNAMVQNNRIELLNHPVCKEYLLMKWLAYGFRAHMMNLGSYCLGLIPMTILVVNIKPGMAFNSTGIINETSDHSEILDTTNSYLIKTCMILVFLSSIFGYCKEAGQIFQQKRNYFMDISNVLEWIIYTTGIIFVLPLFVEIPAHLQWQCGAIAVYFYWMNFLLYLQRFENCGIFIVMLEVILKTLLRSTVVFIFLLLAFGLSFYILLNLQDPFSSPLLSIIQTFSMMLGDINYRESFLEPYLRNELAHPVLSFAQLVSFTIFVPIVLMNLLIGLAVGDIAEVQKHASLKRIAMQVELHTSLEKKLPLWFLRKVDQKSTIVYPNKPRSGGMLFHIFCFLFCTGEIRQEIPNADKSLEMEILKQKYRLKDLTFLLEKQHELIKLIIQKMEIISETEDDDSHCSFQDRFKKEQMEQRNSRWNTVLRAVKAKTHHLEP
Turning to B2, the “other: temperature dependence” value in data set [1] is given as “changes, 18.2 vs 13.5”. Besides, in data set [2], the “other: channel current” value is reported as “no change”. Besides, the “other: maximal channel response, other” value in data set [3] was “no change, 947 vs 1155”. Besides, in data set [4], the “localisation_or_trafficking, other: surface/total ratio relative to WT” value was “increases”. In addition, the “other: agonist sensitivity, EC50” value in data set [5] is on record as “decreases, 141.0 vs 35.0”. The “expression_or_secretion, fold_change” value in data set [6] is given as “decreases”.

B3: hTRPA1: N753Q (protein)
parent chain: MKRSLRKMWRPGEKKEPQGVVYEDVPDDTEDFKESLKVVFEGSAYGLQNFNKQKKLKRCDDMDTFFLHYAAAEGQIELMEKITRDSSLEVLHEMDDYGNTPLHCAVEKNQIESVKFLLSRGANPNLRNFNMMAPLHIAVQGMNNEVMKVLLEHRTIDVNLEGENGNTAVIIACTTNNSEALQILLKKGAKPCKSNKWGCFPIHQAAFSGSKECMEIILRFGEEHGYSRQLHINFMNNGKATPLHLAVQNGDLEMIKMCLDNGAQIDPVEKGRCTAIHFAATQGATEIVKLMISSYSGSVDIVNTTDGCHETMLHRASLFDHHELADYLISVGADINKIDSEGRSPLILATASASWNIVNLLLSKGAQVDIKDNFGRNFLHLTVQQPYGLKNLRPEFMQMQQIKELVMDEDNDGCTPLHYACRQGGPGSVNNLLGFNVSIHSKSKDKKSPLHFAASYGRINTCQRLLQDISDTRLLNEGDLHGMTPLHLAAKNGHDKVVQLLLKKGALFLSDHNGWTALHHASMGGYTQTMKVILDTNLKCTDRLDEDGNTALHFAAREGHAKAVALLLSHNADIVLNKQQASFLHLALHNKRKEVVLTIIRSKRWDECLKIFSHNSPGNKCPITEMIEYLPECMKVLLDFCMLHSTEDKSCRDYYIEYNFKYLQCPLEFTKKTPTQDVIYEPLTALNAMVQNNRIELLNHPVCKEYLLMKWLAYGFRAHMMNLGSYCLGLIPMTILVVNIKPGMAFNSTGIINETSDHSEILDTTNSYLIKTCMILVFLSSIFGYCKEAGQIFQQKRNYFMDISNVLEWIIYTTGIIFVLPLFVEIPAHLQWQCGAIAVYFYWMNFLLYLQRFENCGIFIVMLEVILKTLLRSTVVFIFLLLAFGLSFYILLNLQDPFSSPLLSIIQTFSMMLGDINYRESFLEPYLRNELAHPVLSFAQLVSFTIFVPIVLMNLLIGLAVGDIAEVQKHASLKRIAMQVELHTSLEKKLPLWFLRKVDQKSTIVYPNKPRSGGMLFHIFCFLFCTGEIRQEIPNADKSLEMEILKQKYRLKDLTFLLEKQHELIKLIIQKMEIISETEDDDSHCSFQDRFKKEQMEQRNSRWNTVLRAVKAKTHHLEP
B3: in data set [1], the “other: temperature dependence” value is recorded as “no change, 18.0 vs 13.5”. Further, in data set [2], the “other: channel current” value is given as “no change”. In addition, the “other: maximal channel response, other” value in data set [3] is reported as “no change, 902 vs 1155”. Further, the “localisation_or_trafficking, other: surface/total ratio relative to WT” value in data set [4] is on record as “no change”. Besides, the “other: agonist sensitivity, EC50” value was “no change, 42.0 vs 35.0” in data set [5] and “no change, 10.5 vs 9.5” in data set [7]. Further, the “expression_or_secretion, fold_change” value in data set [6] was “decreases”.
